The term stoichiometry N denotes a count of units in the complex or per binding partner.

B2: Hda1 (enzyme)
chain: MDSVMVKKEVLENPDHDLKRKLEENKEEENSLSTTSKSKRQVIVPVCMPKIHYSPLKTGLCYDVRMRYHAKIFTSYFEYIDPHPEDPRRIYRIYKILAENGLINDPTLSGVDDLGDLMLKIPVRAATSEEILEVHTKEHLEFIESTEKMSREELLKETEKGDSVYFNNDSYASARLPCGGAIEACKAVVEGRVKNSLAVVRPPGHHAEPQAAGGFCLFSNVAVAAKNILKNYPESVRRIMILDWDIHHGNGTQKSFYQDDQVLYVSLHRFEMGKYYPGTIQGQYDQTGEGKGEGFNCNITWPVGGVGDAEYMWAFEQVVMPMGREFKPDLVIISSGFDAADGDTIGQCHVTPSCYGHMTHMLKSLARGNLCVVLEGGYNLDAIARSALSVAKVLIGEPPDELPDPLSDPKPEVIEMIDKVIRLQSKYWNCFRRRHANSGCNFNEPINDSIISKNFPLQKAIRQQQQHYLSDEFNFVTLPLVSMDLPDNTVLCTPNISESNTIIIVVHDTSDIWAKRNVISGTIDLSSSVIIDNSLDFIKWGLDRKYGIIDVNIPLTLFEPDNYSGMITSQEVLIYLWDNYIKYFPSVAKIAFIGIGDSYSGIVHLLGHRDTRAVTKTVINFLGDKQLKPLVPLVDETLSEWYFKNSLIFSNNSHQCWKENESRKPRKKFGRVLRCDTDGLNNIIEERFEEATDFILDSFEEWSDEE
B3: Hda2 (natural protein)
chain: MSRKNSKKLKVYYLPVTLTQFQKDLSEILISLHAKSFKASIIGEPQADAVNKPSGLPAGPETHPYPTLSQRQLTYIFDSNIRAIANHPSLLVDHYMPRQLLRMEPTESSIAGSHKFQVLNQLINSICFRDREGSPNEVIKCAIIAHSIKELDLLEGLILGKKFRTKRLSGTSLYNEKHKFPNLPTVDSTINKDGTPNSVSSTSSNSNSTSYTGYSKDDYDYSVKRNLKKRKINTDDWLFLATTKHLKHDQYLLANYDIDMIISFDPMLEVELPALQVLRNNANKDIPIIKLLVQNSPDHYLLDSEIKNSSVKSSHLSNNGHVDDSQEYEEIKSSLLYFLQARNAPVNNCEIDYIKLVKCCLEGKDCNNILPVLDLITLDEASKDSSDSGFWQPQLTKLQYSSTELPLWDGPLDIKTYQTELMHRAVIRLRDIQDEYAKGTVPLYEKRLNETQRQNQLDEIKNSVGLTFKKKQEVEKSINDSEKRLKHAMTESTKLQNKINHLLKNRQELENFNKLPSNTISSENHLEEGSALADKLKEYIDKNATLFNKLKELQQANAEKSKLNDELRSKYQIESSKAAESAQTLKILQESMKSLENEVNGPLTKFSTESLKKELERLQNDFQSLKARNKFLKNYITLMNRQYDLKNKNNVQVEKAAANGTRFRSTRSNTPNYT

The target in data set [1] is HDAC protomer complex (Hda1_(2)-Hda2-Hda3 heterotetrameric complex) (S. cerevisiae) (UniProt P53973). The data set can be described thus: cryo-EM structure.
In data set [2] the target is B2. The data set can be described thus: cryo-EM structure.
Data set [3] has as its target B3. The data set can be described thus: cryo-EM structure.
Data set [4] concerns the molecule itself. The data set can be described thus: SEC-MALS. For orientation: In gel filtration, larger molecules generally elute earlier.
In data set [5] the target is B2. The experiment in a line: SEC-MALS.

“HDAC protomer complex (Hda1_(2)-Hda2-Hda3 heterotetrameric complex) (from UniProt P53973;Q06629;Q06623)”: the stoichiometry N in data set [1] came to 2.

B1: Hda3 (natural protein)
chain: MDLLRILDTKPIPTIVDATTLGISGNTSGDYWLPTTMSLYQKELTDQIVSLHYSDILRYFETSHYKEDVILESMKTMCLNGSLVATHPYLLIDHYMPKSLITRDVPAHLAENSGKFSVLRDLINLVQEYETETAIVCRPGRTMDLLEALLLGNKVHIKRYDGHSIKSKQKANDFSCTVHLFSSEGINFTKYPIKSKARFDMLICLDTTVDTSQKDIQYLLQYKRERKGLERYAPIVRLVAINSIDHCRLFFGKKFDKNSREYLENVTAAMVILRDRLGTLPPDLRPIYSQKLHYLVEWLENPTVPWPLPDIYPLKQYTSMDVERSLLTEVHFKKSDDQLEDAFSNCSKKRGRHGANKAASSTVAGIEDNITPSFYSTKRLKNDYYTNPLKQDMTQLTGITTADNSSNVNYHLSSGIITHKLIQSMGEVYMDICVQKQELDDYSCLDDLQNDHLKFFSNEDEKIIKEYETVLRTNNENLNRSHELEVENNLKFSQIETLEKDIETLKGSLMAQGETLSKLKDAFVKTDNVQDEIEKEERVSVSRDTEKKYMEQEIKRAVDAIRENEEETHKLNEKQNGLESELKLKFEKSEISTKELNEKIGFLKKELKLENDLNEELVGQLSKTMDNLENLTIPRVRTQNGNTKKKSRAKKPGNV
For B1, the binding result in data set [2] and in data set [3] was “binds” each time.

B2: the “stoichiometry N” value in data set [4] worked out at 2. As for B3, the binding result in data set [5] was “binds”.
